System: T1, recombinant MBP-peptide fusion protein (MBP-29)
T1 sequence: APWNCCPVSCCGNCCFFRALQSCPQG

| Substance | enzymatic activity of MMP-9 after MMP-3 dependent activation ([3H]-labeled gelatin substrate) | enzymatic activity of MMP-9 ([3H]-labeled gelatin substrate, TCA soluble radioactivity) |
| --- | --- | --- |
| ProMMP-9 activated with MBP-MMP3 | MMP-3 dependent activation of MMP was inhibited in a dose-dependent manner | – |
| proMMP-9 (CALBIOCHEM) | – | inhibited MMP-9 activity in a dose-dependent manner |
